# Source: patent EP4793288A1
# Where a chain is given by its changes, count along the chain named.
# B1: T22A4 (Fab clone displayed on phage) (Fab, V domains shown)
# VH: EVQLVESGGNWVQPGGSLRLSCAASGFSFRSYAMSWVRQAPGKGLEWVSSISGSGNSELYAGSVKGRFTISRDNSKNTLSLQLHSLRAEDTAMYYCAKFSAAVGFLPDYFDSWGQGTLVTVSS
# VL: ELTLTQSPSSLSASVGDRVTITCQASHDISKYLNWYQQKSGKAPKLLIYDASNLETGVPSRFSGSGSGTDFTLTISSLQPEDFATYYCQQSYRTPLTFGGGTKLEIK
# B2: T23D5 (Fab clone displayed on phage) (Fab, V domains shown)
# VH: QVQLQESGPGLVKPSETLSLTCTVSGGSIDRSSHYWGWIRQPPGKGLEWLGSIYYSGITYYNPSLKSRVTISVDTSRNQFSLTLSSVTAADTAVYYCARHGSYDSWAGRYKWDRFDPWGQGTPVTVSS
# VL: B1 VL with T3Q, L4M, R93S, L104V
# Molecular target: Recombinant HLA-G antigen (human) (UniProt P17693)
# Assay: monoclonal phage ELISA, Fab on phage, anti-M13 HRP (selection threshold)
row,Binder,absorbance (OD450)
1,B1,> 0.4
2,B2,> 0.4
